Measurements published in patent US20120129768A1 (JIANGSU HANSOH PHARMACEUTICAL GROUP, published 2012).
Starred links: 1 amine or outer side, 2 acyl side, 3 side chain; linkers in the order of their positions; H or OH if unused. Non-standard residues stand in square brackets, D forms with d. No end group written: not given here. *: point of attachment. εLys = N[C@@H](CCCCN[*:1])C(=O)[*:2]; Palmitoyl = CCCCCCCCCCCCCCCC(=O)*; Aib = CC(C)(N)C(=O)O

Molecular target: Glucagon-like peptide-1 receptor (GLP1R)
Assay: cell-based or functional assay

**Q.** What does the source list for H[Aib]EGTFTSDVSSYLEEEAAKEFIAWLVRGGPSSGAPPPSK (not fully specified (residue 40); ends and bridges not checked) [HS-20004]?
**A.** EC50 (nM), cAMP-response-element luciferase reporter in HEK293 cells with GLP1R: 0.000373 nM; Maximum reaction rate (%): 90.8%

**Q.** Which “EC50 (nM), cAMP-response-element luciferase reporter in HEK293 cells with GLP1R” value does the source give for HAEGTFTSDVSSYLEGQAAEFIVWLVKGRGKKGGPPPS[εLys](Palmitoyl) (not fully specified) [HS-20005] here?
**A.** Its value is 0.000236 nM.

**Q.** And the “Maximum reaction rate (%)” value?
**A.** The value was 89.1%.

**Q.** With HAEGTFTSDVSSYLEEQAAEFIVWLVKGRGKKGGPPPS[εLys](Palmitoyl) (not fully specified) [HS-20007] as the binder, how does the “EC50 (nM), cAMP-response-element luciferase reporter in HEK293 cells with GLP1R” value read?
**A.** Its value is 0.000549 nM.

**Q.** And the “Maximum reaction rate (%)” value?
**A.** The value was 87%.
